According to patent US20230293571A1, “POLYNUCLEOTIDE FOR CANCER TREATMENT, ENCODING 5'-NUCLEOTIDASE MODIFIED PROTEIN” (priority 2020, published 2023):

B1: SV4-DSPE (conjugate)
chain: MEEELQIIQPDLSVSVAAGESAILHCTITSLFPVGPIQWFRGAGPARVLIYNQRQGPFPRVTTVSETTKRENMDFSISISNITPADAGTYYCIKFRKGSPDTEFLSGAGTELSVRAKPS

Target: recombinant CD47 protein (Homo sapiens, UniProt Q08722)
Experiment: SPR on CM5 chip conjugated with CD47
Format: binding
Details: CD47 250 RU
Procedure: Specifically, the recombinant CD47 protein was conjugated to the surface of the CM5 chip by a target SPR reaction of 250 RU through an EDC-NHS reaction to be used, and for HBS-P, the sensogram obtained through a process of association for 3 minutes and dissociation for 10 minutes at a flow rate of 30 μL/minutes was analyzed with the BiaEvaluation software using a 1:1 binding model and global fitting.

Sequence of recombinant CD47 protein (Q08722 19-323): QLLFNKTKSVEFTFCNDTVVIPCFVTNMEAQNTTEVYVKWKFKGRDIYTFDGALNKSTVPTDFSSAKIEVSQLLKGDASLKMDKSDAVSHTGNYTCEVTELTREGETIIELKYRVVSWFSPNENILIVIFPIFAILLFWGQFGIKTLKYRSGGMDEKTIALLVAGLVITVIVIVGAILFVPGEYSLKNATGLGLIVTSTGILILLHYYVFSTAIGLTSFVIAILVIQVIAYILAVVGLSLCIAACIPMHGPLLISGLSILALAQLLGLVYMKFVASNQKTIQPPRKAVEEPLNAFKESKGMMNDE

Row | Molecule | Kd | kd
1 | Sirpα: pure Sirpα (SEQ ID NO: 25), water-soluble domain of the original CD47 ligand | 290 nM | –
2 | B1 | – | 0.000256 s⁻¹
